B1: Bacillus subtilis AMP-forming acetyl-CoA synthetase AcsA (enzyme, UniProt P39062 1-572, looked up)
chain: MNLKALPAIEGDHNLKNYEETYRHFDWAEAEKHFSWHETGKLNAAYEAIDRHAESFRKNKVALYYKDAKRDEKYTFKEMKEESNRAGNVLRRYGNVEKGDRVFIFMPRSPELYFIMLGAIKIGAIAGPLFEAFMEGAVKDRLENSEAKVVVTTPELLERIPVDKLPHLQHVFVVGGEAESGTNIINYDEAAKQESTRLDIEWMDKKDGFLLHYTSGSTGTPKGVLHVHEAMIQQYQTGKWVLDLKEEDIYWCTADPGWVTGTVYGIFAPWLNGATNVIVGGRFSPESWYGTIEQLGVNVWYSAPTAFRMLMGAGDEMAAKYDLTSLRHVLSVGEPLNPEVIRWGHKVFNKRIHDTWWMTETGSQLICNYPCMDIKPGSMGKPIPGVEAAIVDNQGNELPPYRMGNLAIKKGWPSMMHTIWNNPEKYESYFMPGGWYVSGDSAYMDEEGYFWFQGRVDDVIMTSGERVGPFEVESKLVEHPAIAEAGVIGKPDPVRGEIIKAFIALREGFEPSDKLKEEIRLFVKQGLAAHAAPREIEFKDKLPKTRSGKIMRRVLKAWELNLPAGDLSTMED
notes: AMP-forming acetyl-CoA synthetase AcsA, Bacillus subtilis, UniProt P39062; synthetic gene codon optimized for E. coli; also called AcsA wildtype; non-acetylated AcsA; source: E. coli BL21 (DE3), pET45b(+), purified (HisTrap FF, Ni2+)

Experiments:
AcsA•AcuA complex = target: T1, AcsA•AcuA complex (Bacillus subtilis, UniProt P39065); assay: lysine acetylation of AcsA K549, anti-AcK immunoblot and SEC; type: biochemical
T1 construct: both N-terminally His6-tagged, E. coli BL21 (DE3); AcuA 25,484 g/mol, monomer alone; apparent heterotetramer; AcsA K549 is the acetyl acceptor; with Acetyl-coenzyme A synthetase (AMP-forming)

[1] = target: the molecule itself; assay: SEC; analytical SEC of the single proteins, Superdex 200 10/300 GL, 50 mM Tris/HCl pH 8, 50 mM KCl, 2 mM β-mercaptoethanol; 100 µl of 50–100 µM injected; MW from a calibration curve
[2] = target: the molecule itself; assay: SEC; analytical SEC of the preformed equimolar AcsA•AcuA complex pretreated with a tenfold molar excess of acetyl-CoA (excess also varied), 30 min at room temperature; fractions checked by anti-AcK immunoblot and Ponceau S
[3] = target: B1; assay: SEC; analytical SEC of equimolar AcsA and AcuA (wild type or mutants), incubated 30 min at room temperature, Superdex 200 10/300 GL, 50 mM Tris/HCl pH 8, 50 mM KCl, 2 mM β-mercaptoethanol; 100 µl of 50–100 µM; without ligand or with a tenfold molar excess of CoA or AcP alone; settings: both partners purified

T1 sequence (P39065 whole entry, one chain of several): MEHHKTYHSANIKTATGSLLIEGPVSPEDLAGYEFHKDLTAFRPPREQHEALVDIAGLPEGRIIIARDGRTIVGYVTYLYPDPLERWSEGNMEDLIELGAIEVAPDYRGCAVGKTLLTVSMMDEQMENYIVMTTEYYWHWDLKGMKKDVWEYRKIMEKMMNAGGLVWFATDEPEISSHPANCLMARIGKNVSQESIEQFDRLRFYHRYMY

CC(=O)SCCNC(=O)CCNC(=O)[C@H](O)C(C)(C)COP(=O)(O)OP(=O)(O)OC[C@H]1O[C@@H](n2cnc3c(N)ncnc32)[C@H](O)[C@@H]1OP(=O)(O)O [acetyl-CoA]
lysine acetylation of AcsA K549, anti-AcK immunoblot and SEC (AcsA•AcuA complex; 200 µM acetyl-CoA, AcuA 5 µM, AcsA 20 µM, acetyltransferase activity): addition of acetyl-CoA to AcsA and AcuA resulted in a strong acetylation of AcsA

CC(=O)OP(=O)(O)O [AcP]
lysine acetylation of AcsA K549, anti-AcK immunoblot and SEC (AcsA•AcuA complex; intrinsic phosphotransacetylase activity, AcP with CoA as needed co-substrate, 37 °C): upon addition of CoA and AcP, AcsA was strongly acetylated

B1
stoichiometry N [1]: 2

B2: K549-acetylated Bacillus subtilis AcsA (enzyme, UniProt P39062 1-572, looked up)
chain: MNLKALPAIEGDHNLKNYEETYRHFDWAEAEKHFSWHETGKLNAAYEAIDRHAESFRKNKVALYYKDAKRDEKYTFKEMKEESNRAGNVLRRYGNVEKGDRVFIFMPRSPELYFIMLGAIKIGAIAGPLFEAFMEGAVKDRLENSEAKVVVTTPELLERIPVDKLPHLQHVFVVGGEAESGTNIINYDEAAKQESTRLDIEWMDKKDGFLLHYTSGSTGTPKGVLHVHEAMIQQYQTGKWVLDLKEEDIYWCTADPGWVTGTVYGIFAPWLNGATNVIVGGRFSPESWYGTIEQLGVNVWYSAPTAFRMLMGAGDEMAAKYDLTSLRHVLSVGEPLNPEVIRWGHKVFNKRIHDTWWMTETGSQLICNYPCMDIKPGSMGKPIPGVEAAIVDNQGNELPPYRMGNLAIKKGWPSMMHTIWNNPEKYESYFMPGGWYVSGDSAYMDEEGYFWFQGRVDDVIMTSGERVGPFEVESKLVEHPAIAEAGVIGKPDPVRGEIIKAFIALREGFEPSDKLKEEIRLFVKQGLAAHAAPREIEFKDKLPKTRSGKIMRRVLKAWELNLPAGDLSTMED
modifications: acetyl-lysine at K549
notes: AMP-forming acetyl-CoA synthetase AcsA, Bacillus subtilis, UniProt P39062, acetylated at K549 by AcuA; Formed in the sample from m1 and m2 before the SEC run; K549 is the major acceptor site by the K549R control; also called AcsA AcK549; acetylated AcsA; source: E. coli BL21 (DE3), purified; acetylated in vitro by AcuA with acetyl-CoA, or with AcP and CoA
stoichiometry N [2]: 2

B3: AcuA W140A (enzyme, Bacillus subtilis, UniProt P39065 1-210, looked up)
chain: MEHHKTYHSANIKTATGSLLIEGPVSPEDLAGYEFHKDLTAFRPPREQHEALVDIAGLPEGRIIIARDGRTIVGYVTYLYPDPLERWSEGNMEDLIELGAIEVAPDYRGCAVGKTLLTVSMMDEQMENYIVMTTEYYWHADLKGMKKDVWEYRKIMEKMMNAGGLVWFATDEPEISSHPANCLMARIGKNVSQESIEQFDRLRFYHRYMY
notes: AcuA, Bacillus subtilis, UniProt P39065, with W140A
binding result [3]: binds

B4: AcuA E97Q/E135Q (enzyme, Bacillus subtilis, UniProt P39065 1-210, looked up)
chain: MEHHKTYHSANIKTATGSLLIEGPVSPEDLAGYEFHKDLTAFRPPREQHEALVDIAGLPEGRIIIARDGRTIVGYVTYLYPDPLERWSEGNMEDLIQLGAIEVAPDYRGCAVGKTLLTVSMMDEQMENYIVMTTQYYWHWDLKGMKKDVWEYRKIMEKMMNAGGLVWFATDEPEISSHPANCLMARIGKNVSQESIEQFDRLRFYHRYMY
notes: AcuA, Bacillus subtilis, UniProt P39065, with E97Q and E135Q; also called double mutant AcuA E97Q/E135Q
binding result [3]: binds

B5: AcuA W140F (enzyme, Bacillus subtilis, UniProt P39065 1-210, looked up)
chain: MEHHKTYHSANIKTATGSLLIEGPVSPEDLAGYEFHKDLTAFRPPREQHEALVDIAGLPEGRIIIARDGRTIVGYVTYLYPDPLERWSEGNMEDLIELGAIEVAPDYRGCAVGKTLLTVSMMDEQMENYIVMTTEYYWHFDLKGMKKDVWEYRKIMEKMMNAGGLVWFATDEPEISSHPANCLMARIGKNVSQESIEQFDRLRFYHRYMY
notes: AcuA, Bacillus subtilis, UniProt P39065, with W140F
binding result [3]: binds

— paper PMC11255334, “Acetyl-CoA synthetase activity is enzymatically regulated by lysine acetylation using acetyl-CoA or acetyl-phosphate as donor molecule” (Nature Communications, 2024)
